Test system: MS2 coat protein
Experiment: apparent KD of MS2 coat protein; designed switch direction (-1 OFF switch, 1 ON switch): -1; higher = weaker reporter binding
Method in brief: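 For each design, the apparent KD is the median over clusters of curves fitted to normalised cluster fluorescence. Clusters held RNA switches with common flanks, transcribed on Illumina chips by stalled E. coli RNA polymerase. These were titrated with SNAP-549-labelled MS2 coat protein, doubling from 0.7 or 1.5 nM to 3 µM, without input, with 200 uM small-molecule ligand, or with an oligonucleotide input.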

[1] = Eterna round: R95, input ligand: FMN 200 uM
[2] = Eterna round: R95, input ligand: microRNA oligo, concentration not stated
[3] = Eterna round: R95, input ligand: none
[4] = input ligand: microRNA oligo, concentration not stated

| Sequence | apparent KD of MS2 coat protein [2] [nM] | apparent KD of MS2 coat protein (input ligand: FMN 200 uM) [nM] | apparent KD of MS2 coat protein (input ligand: none) [nM] | also measured |
| --- | --- | --- | --- | --- |
| AAGAAGAAACAAGCUUUUUGCACGUCAGGUAGUGACGCAACAUGAGGAUCACCCAUGUAUAGGGUGGGAAAGGAUAG [JR_SV3TOV2_Sub048] (puzzle: Sensor v3, turn-off variant 2) | 30.9 | – | – | apparent KD of MS2 coat protein [1]: 34 nM; apparent KD of MS2 coat protein [3]: 303 nM |
| UUAAAUAAUGUAGGAUAUGCAAGGCGAACCUAAGCAGAAGGACAUGAGGAUCACCCAUGUAAUGCGGUCUGCGUACAGAUCGCA [JL ENG1 1.01] (Eterna round: R96, puzzle: Exclusion NG 1) | – | 59.4 | 24.2 | apparent KD of MS2 coat protein [4]: 23.2 nM |
| AUUGAUGUUGAGGAUAUGCUUUUAUUUGUUCUUGCAGAAGGCGAUACAUGAGGAUCACCCAUGUUCAUGGAAGU [JR_E6_Sub090] (puzzle: Exclusion 6) | 39.7 | – | – | – |
| GACCUCACUGUAGGAUAUGACCGAUCCAGAGGAUCAGAAGGACAUGAGGAUCACCCAUGUGCGUGGAGGGAACGUAAGAAACAA [Eternabot solution 2] (Eterna round: R96, puzzle: Exclusion NG 1) | – | 323 | 52.9 | apparent KD of MS2 coat protein [4]: 29.4 nM |
| CCAUCCAGUGUGAGGAUAUGCUGGUCCUUGGAUCAGCAGAAGGCACAUGAGGAUCACCCAUGUGAAUAGGAUGG [Mat - Exclusion 4 - JL Mod - D85] (puzzle: Brourd's mod of Exclusion 4) | 18.9 | – | – | apparent KD of MS2 coat protein [1]: 153 nM; apparent KD of MS2 coat protein [3]: 24.1 nM |
| GGUUGACAUGAGGAUCACCCAUGUGAGGAUAUGCGAGAGAAAAAAGUGAGGAAGAGAAGCAGAAGGCGCUGUCG [salish99-ex1_r3_014] (puzzle: Exclusion 1) | 45.1 | – | – | apparent KD of MS2 coat protein [1]: 68.7 nM; apparent KD of MS2 coat protein [3]: 106 nM |
| AUAUAGUGAGGAUAUCCAAUAUAUGACAUGAGGAUCACCCAUGUUUCCACUCGUACCUCCGGAGAAGGCACAUUUU [Ex5 #65] (Eterna round: R97, puzzle: Exclusion 5) | – | 27.2 | 27.6 | – |
| ACCUCACAUGAGGAUCACCCAUGUCAGGAUAUUCAAACAGGCGAAACUCCGCCUUCUCGAAGAAGGGACAUUAA [Israon] (puzzle: Exclusion 1) | 16.2 | – | – | – |
| ACAUCGCCAGAAGUAGGUGACAUGAGGAUCACCCAUGUAGGCUAUUUUGCUCGUUUUAUUUCCACCCUAUUUGCUCC [Eternabot (L1) Solution 13] (Eterna round: R97, puzzle: Sensor, turn-off variant 1) | – | 146 | 190 | – |
| GGAUUUCCUGAGGAUAUUGCAUCACCCGAUUUAUAAGAAGGCAGAACAUGAGGAUCACCCAUGUGGGUCUCCAG [Bingo-Bango-24] (Eterna round: R97, puzzle: Exclusion 6) | – | 22.9 | 17.9 | – |
| CAGUUCCAGGGAGGAUAUCCGAAAGGAAGUGUAGGAGAAGGCCCAAACUGAAAACACAUGAGGAUCACCCAUGUAGGUGUUCUC [PowerStrip EXNG 1.20] (Eterna round: R96, puzzle: Exclusion NG 1) | – | 1320 | 659 | apparent KD of MS2 coat protein [4]: 656 nM |
| CCCGUGUUAGGAUAUACGGCACACCUGCCAGCAGGUGUAUAGUAGAAGGAACAUGAGGAUCACCCAUGUAUAGC [Rizausma] (puzzle: Exclusion 4) | 34.6 | – | – | – |
| AUUAUACAUGAGGAUCACCCAUGUGAGGAUAUCCGCAGCACAGGCAGAGUCGGUUGCAGGAGAAGGCACUCCUC [Eternabot (L1) Solution 57] (Eterna round: R97, puzzle: Exclusion 1) | – | 72.5 | 44.4 | – |
| AGCUGUGGCCGAGGAUAUCUAACAGUCCCAACCGAAAUAUAAUCGGACAUGAGGAUCACCCAUGUAGAGAAGGCGGUCUCAGCA [Eli eng2 - 072] (Eterna round: R96, puzzle: Exclusion NG 2) | – | 324 | 222 | apparent KD of MS2 coat protein [4]: 157 nM |
| GGUUGACAUGAGGAUCACCCAUGUGAGGAUAUGCGAGAGAAAAAAGUGAGGAAGUAAUGCAGAAGGCGCUGUCG [salish99-ex1_r3_017] (puzzle: Exclusion 1) | 86.4 | – | – | apparent KD of MS2 coat protein [1]: 132 nM; apparent KD of MS2 coat protein [3]: 210 nM |
| UGAGUGCUGCGAGGAUAUACAUGAGGAUCACCCAUGUUUUCCUGUGAGGCUUUGCCUCACAGGAUGUAGAAGGCGCAGUACUCU [JL ENG2 1.14] (Eterna round: R96, puzzle: Exclusion NG 2) | – | 9.13 | 12.1 | apparent KD of MS2 coat protein [4]: 7.33 nM |
| ACAAGCUUAAUCAGUAUGAACAUGAGGAUCACCCAUGUAAAAGGGAAUACUAUUGGGUUUUUUAAAGCUCGUCUUAU [JR_STOV1_Sub017] (Eterna round: R97, puzzle: Sensor, turn-off variant 1) | – | 23 | 21.8 | – |
| UAGAUGGGAGGAUAUACAUAGAUACAGAUUCAUGUAGUGCUACAUGAGGAUCACCCAUGUAGAAGGCCCGUCUU [JL-ex2-2.18 Mayanne mod] (Eterna round: R96, puzzle: Exclusion 2) | – | 407 | 37.9 | apparent KD of MS2 coat protein [4]: 33.2 nM |

| Sequence | apparent KD of MS2 coat protein [2] [nM] | apparent KD of MS2 coat protein (input ligand: FMN 200 uM) [nM] | apparent KD of MS2 coat protein (input ligand: none) [nM] | also measured |
| --- | --- | --- | --- | --- |
| GUUAUGUCAGGAUAUGCUAAUGAUGAGUGAUCAGACAUGAUGUAGAAGGGACAUGAGGAUCACCCAUGUACUAA [EX4 #9] (Eterna round: R97, puzzle: Exclusion 4) | – | 30.6 | 29 | – |
| GUAGAGUAAGGAUAUAGUGAAUAGGAUAGAAUGGUUAGAAACUAGAAGGUACAUGAGGAUCACCCAUGUAAUGU [Excluse me!!!! 21 - Jieux - Exclusion 4] (puzzle: Exclusion 4) | 20.4 | – | – | – |
| UAGCAUUGCCUUUGGUAGUGCUUUACAUGAGGAUCACCCAUGUAGGAUAUGGUAGGCUUUGCUUACCAGAAGGACAUGAUAAUU [JL ENG3 1.04] (Eterna round: R96, puzzle: Exclusion NG 3) | – | – | – | apparent KD of MS2 coat protein [4]: 52.3 nM |
| UUGUACCGGUGAGGAUAUUUUUGAUAGAACUUUAUGAUAUACAUGAGGAUCACCCAUGUUACUUUAAAGAAGGCAUCGGAUUAU [JL JR Sub091 mod 2] (Eterna round: R96, puzzle: Exclusion NG 2) | – | – | – | apparent KD of MS2 coat protein [4]: 14.3 nM |
| UGUGCGUAUGUGAGGAUAUGCUGGUCCUUGGCUCGGCAGAAGGCACAUGAGGAUCACCCAUGUGGUGUCGUACG [salish99_Bmod_ex4_064] (puzzle: Brourd's mod of Exclusion 4) | 52.1 | – | – | – |
| GAAAAGGAAGGAUAUACGAAAAAAAAGGGUAGAAAAAAAACACAUGAGGAUCACCCAUGUAGAAGGUCCAAAAG [salish99_ex2_r3_092] (puzzle: Exclusion 2) | 43.5 | – | – | apparent KD of MS2 coat protein [1]: 151 nM; apparent KD of MS2 coat protein [3]: 54.5 nM |
| GCCUCACUUGAGGAUCACCCAAGUCAGGAUAUCUACAGGCCGGCCAUACCAGCCUGCAAGAGAAGGGACUCUAA [Isriqu] (Eterna round: R97, puzzle: Exclusion 1) | – | 245 | 32.3 | – |
| CAACUGUCAGGAUAUCGUGCAUACAACGAAAGUUCUAUGUGCGAGAAGGGACAUGAGGAUCACCCAUGUAAACG [Omei Ex4 A27] (Eterna round: R97, puzzle: Exclusion 4) | – | 199 | 60.9 | – |
| GGUCCACAUGAGGAUCACCCAUGUUAGGAUAUCUCGCCCGAGUCGUUAUGGGCCGGGCAGAGAAGGAAUGUGAA [Redion] (puzzle: Exclusion 1) | 17.9 | – | – | – |
| GACCCACAUGAGGAUCACCCAUGUGAGGAUAUCAUGCUUCGUAGUAAACUACGAAGUGUGAGAAGGCACAAUGG [Omei Ex1 C7] (Eterna round: R97, puzzle: Exclusion 1) | – | 134 | 37.4 | – |
| AGUGUGGGAGGAUAUACAUGAGGAUCACCCAUGUGAGUUGGCUCACAUGCUACGCUUCGUAGAAGGCCCAAAGA [Reragebion] (Eterna round: R96, puzzle: Exclusion 3) | – | 554 | 91.3 | apparent KD of MS2 coat protein [4]: 86.2 nM |
| UCUUAUUGCAAGGAUAUGCAAAUUAUUAUUAAUGCAGAAGGUGCUACAUGAGGAUCACCCAUGUUUCCGGGUUU [JR_E6_Sub042] (puzzle: Exclusion 6) | 43.3 | – | – | – |
| GGUGGACAUGAGGAUCACCCAUGUGAGGAUAUCGGCUGGCUAGUGGCGGAUGGCUUCUCGAGAAGGCGCAUAGU [Exclusion 1 V80] (puzzle: Exclusion 1) | 50.2 | – | – | – |
| UUUUGUCAGGUAUUUAUUAACAUGAGGAUCACCCAUGUGCAUCCAAAAUUACUUUUAGAUCAAGCUCGUCUUAUAUA [JR_STOV1_Sub089] (Eterna round: R97, puzzle: Sensor, turn-off variant 1) | – | 94.3 | 102 | – |
| GGACCGUAAGGAUAUGGCACGAAUCGACAGUCGAUCUCGAGCUAGAAGGUACAUGAGGAUCACCCAUGUCCGUU [Eternabot (L1) Solution 13] (Eterna round: R97, puzzle: Exclusion 4) | – | 25.4 | 19.2 | – |
| UGGACAUGAGGAUCACCCAUGUAAUACACACCUCAGCCACGAGAGGAUAUGCCCGGAGGACCGGCGCAGAAGGCUCCCAAGAGA [Eternabot solution 10] (Eterna round: R96, puzzle: Exclusion NG 3) | – | 83.8 | 48.1 | apparent KD of MS2 coat protein [4]: 29.5 nM |
| AACGAAGCAGGAUAUACAUGAGGAUCACCCAUGUGCUUGCAUGGCGUGGGAAGUCAUAGUAGAAGGGCUACGCC [EX3 #62] (Eterna round: R97, puzzle: Exclusion 3) | – | 53.6 | 22.1 | – |

— the supplement of paper PMC9170038
